Data from patent US20140072613A1, “Compositions and Methods for Treating Cutaneous Scarring” (priority 2012, published 2014).

Tests used:
Experiment in all cases: biochemical
Format in all cases: biochemical
[1] = target: T1, 266 human kinases (Homo sapiens, UniProt P54753); settings: EphB3(h); 100 μM
T1 sequence (P54753 34-998): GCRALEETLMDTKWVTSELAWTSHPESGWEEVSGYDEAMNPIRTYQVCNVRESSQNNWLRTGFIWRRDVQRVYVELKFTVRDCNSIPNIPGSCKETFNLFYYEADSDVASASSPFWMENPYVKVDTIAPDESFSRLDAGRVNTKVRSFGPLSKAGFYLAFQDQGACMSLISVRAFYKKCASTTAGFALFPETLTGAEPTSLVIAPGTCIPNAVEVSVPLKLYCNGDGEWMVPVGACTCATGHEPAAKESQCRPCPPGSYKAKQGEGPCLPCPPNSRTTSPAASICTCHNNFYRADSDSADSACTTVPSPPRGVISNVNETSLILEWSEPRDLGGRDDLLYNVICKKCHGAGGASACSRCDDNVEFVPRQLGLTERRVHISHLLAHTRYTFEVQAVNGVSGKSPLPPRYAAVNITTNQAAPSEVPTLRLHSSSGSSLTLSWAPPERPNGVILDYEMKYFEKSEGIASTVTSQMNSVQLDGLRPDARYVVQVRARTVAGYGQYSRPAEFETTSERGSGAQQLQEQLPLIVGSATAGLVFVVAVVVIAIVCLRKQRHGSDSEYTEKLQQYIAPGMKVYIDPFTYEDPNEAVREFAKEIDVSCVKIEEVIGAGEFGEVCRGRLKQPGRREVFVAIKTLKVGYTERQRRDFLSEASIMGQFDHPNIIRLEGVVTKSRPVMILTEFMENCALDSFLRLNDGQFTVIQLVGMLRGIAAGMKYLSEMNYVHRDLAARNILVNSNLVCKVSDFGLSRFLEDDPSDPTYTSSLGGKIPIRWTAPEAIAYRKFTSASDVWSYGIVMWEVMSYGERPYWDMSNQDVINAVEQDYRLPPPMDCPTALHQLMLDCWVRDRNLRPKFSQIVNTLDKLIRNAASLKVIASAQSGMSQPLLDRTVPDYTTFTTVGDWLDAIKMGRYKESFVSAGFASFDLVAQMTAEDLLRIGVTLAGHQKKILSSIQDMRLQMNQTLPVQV
How it was run: (§1)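 Inhibition was judged from reduced transfer of labelled phosphate from ATP to a positively charged substrate, which was captured on a negatively charged membrane and quantified by scintillation counting against a 100% activity control.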

[2] = target: 266 human kinases (Homo sapiens, UniProt Q15759); settings: SAPK2b(h); 100 μM
How it was run: as §1

[3] = target: 266 human kinases (Homo sapiens, UniProt Q16513); settings: PRK2(h); 100 μM
How it was run: as §1

[4] = target: 266 human kinases (Homo sapiens, UniProt Q02763, Y897S); settings: Tie2(Y897S)(h); 100 μM
How it was run: as §1

[5] = target: 266 human kinases (Homo sapiens, UniProt Q9BYP7); settings: WNK3(h); 100 μM
How it was run: as §1

[6] = target: 266 human kinases (Homo sapiens, UniProt P22607); settings: FGFR3(h); 100 μM
How it was run: as §1

[7] = target: 266 human kinases (Homo sapiens, UniProt O75116); settings: ROCK-II(h); 100 μM
How it was run: as §1

[8] = target: 266 human kinases (Homo sapiens, UniProt Q92630); settings: DYRK2(h); 100 μM
How it was run: as §1

[9] = target: 266 human kinases (Homo sapiens, UniProt Q00534); settings: CDK6/cyclinD3(h); 100 μM
How it was run: as §1

[10] = target: 266 human kinases (Homo sapiens, UniProt Q16539, T106M); settings: SAPK2a(T106M)(h); 100 μM
How it was run: as §1

[11] = target: T2, 266 human kinases (Homo sapiens, UniProt P54760); settings: EphB4(h); 100 μM
T2 sequence (P54760 16-987): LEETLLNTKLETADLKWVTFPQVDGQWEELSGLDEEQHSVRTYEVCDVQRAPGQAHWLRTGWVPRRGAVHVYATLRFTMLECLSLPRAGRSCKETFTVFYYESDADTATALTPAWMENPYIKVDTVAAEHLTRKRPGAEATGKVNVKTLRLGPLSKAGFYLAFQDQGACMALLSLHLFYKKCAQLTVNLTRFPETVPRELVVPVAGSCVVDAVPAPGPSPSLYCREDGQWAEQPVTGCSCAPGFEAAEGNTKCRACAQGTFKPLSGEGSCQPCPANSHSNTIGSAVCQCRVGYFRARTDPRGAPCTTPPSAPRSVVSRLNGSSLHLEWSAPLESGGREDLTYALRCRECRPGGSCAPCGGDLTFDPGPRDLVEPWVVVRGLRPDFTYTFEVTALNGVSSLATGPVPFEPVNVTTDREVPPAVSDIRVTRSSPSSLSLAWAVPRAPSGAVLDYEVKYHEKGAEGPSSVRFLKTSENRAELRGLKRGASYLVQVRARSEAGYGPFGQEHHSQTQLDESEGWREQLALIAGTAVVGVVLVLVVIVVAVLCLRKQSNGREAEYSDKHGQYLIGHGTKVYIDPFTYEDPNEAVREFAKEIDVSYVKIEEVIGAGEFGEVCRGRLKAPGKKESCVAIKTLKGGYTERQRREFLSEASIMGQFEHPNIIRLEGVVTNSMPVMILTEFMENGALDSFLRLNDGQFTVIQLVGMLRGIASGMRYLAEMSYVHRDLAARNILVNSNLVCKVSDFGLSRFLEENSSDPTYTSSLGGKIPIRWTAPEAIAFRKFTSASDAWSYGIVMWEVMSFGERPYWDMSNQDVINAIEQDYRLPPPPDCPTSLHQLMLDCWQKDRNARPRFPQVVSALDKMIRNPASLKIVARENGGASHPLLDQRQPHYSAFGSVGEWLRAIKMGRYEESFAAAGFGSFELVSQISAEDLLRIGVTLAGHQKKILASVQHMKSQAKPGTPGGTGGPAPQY
How it was run: as §1

[12] = target: 266 human kinases (Homo sapiens, UniProt Q06187); settings: BTK(h); 100 μM
How it was run: as §1

[13] = target: 266 human kinases (Homo sapiens, UniProt P07949, V804L); settings: Ret(V804L)(h); 100 μM
How it was run: as §1

Chain of 266 human kinases (Homo sapiens, UniProt Q02763, Y897S) (Q02763 23-1124 Y897S): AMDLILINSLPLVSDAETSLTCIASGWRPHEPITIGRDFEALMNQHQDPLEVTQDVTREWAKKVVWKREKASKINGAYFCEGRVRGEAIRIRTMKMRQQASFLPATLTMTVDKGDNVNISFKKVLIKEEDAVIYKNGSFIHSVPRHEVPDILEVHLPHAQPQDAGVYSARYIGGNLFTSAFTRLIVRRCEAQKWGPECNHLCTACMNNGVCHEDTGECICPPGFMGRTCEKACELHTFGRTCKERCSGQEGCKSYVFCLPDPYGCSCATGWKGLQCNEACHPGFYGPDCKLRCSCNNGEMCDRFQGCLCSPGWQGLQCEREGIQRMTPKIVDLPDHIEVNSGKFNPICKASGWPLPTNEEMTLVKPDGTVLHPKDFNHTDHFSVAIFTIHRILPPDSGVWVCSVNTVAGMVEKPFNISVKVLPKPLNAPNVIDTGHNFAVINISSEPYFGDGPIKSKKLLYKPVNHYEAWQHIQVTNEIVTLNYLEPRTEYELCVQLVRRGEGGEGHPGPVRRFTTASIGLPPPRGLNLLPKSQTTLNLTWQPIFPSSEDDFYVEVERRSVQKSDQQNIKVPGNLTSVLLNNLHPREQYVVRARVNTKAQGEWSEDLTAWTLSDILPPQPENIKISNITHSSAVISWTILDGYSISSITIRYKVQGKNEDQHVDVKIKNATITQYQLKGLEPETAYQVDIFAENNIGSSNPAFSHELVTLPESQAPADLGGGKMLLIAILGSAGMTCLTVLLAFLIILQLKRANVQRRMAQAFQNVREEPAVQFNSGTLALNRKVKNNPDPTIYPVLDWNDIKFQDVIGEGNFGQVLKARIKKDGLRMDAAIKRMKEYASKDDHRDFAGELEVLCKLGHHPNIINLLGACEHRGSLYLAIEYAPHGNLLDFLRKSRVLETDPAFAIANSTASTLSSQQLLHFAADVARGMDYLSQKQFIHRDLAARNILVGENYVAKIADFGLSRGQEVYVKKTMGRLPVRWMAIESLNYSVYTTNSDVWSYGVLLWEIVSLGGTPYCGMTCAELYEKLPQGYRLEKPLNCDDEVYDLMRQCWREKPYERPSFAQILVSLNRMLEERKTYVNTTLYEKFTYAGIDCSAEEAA
Chain of 266 human kinases (Homo sapiens, UniProt Q16539, T106M) (Q16539 whole entry T106M): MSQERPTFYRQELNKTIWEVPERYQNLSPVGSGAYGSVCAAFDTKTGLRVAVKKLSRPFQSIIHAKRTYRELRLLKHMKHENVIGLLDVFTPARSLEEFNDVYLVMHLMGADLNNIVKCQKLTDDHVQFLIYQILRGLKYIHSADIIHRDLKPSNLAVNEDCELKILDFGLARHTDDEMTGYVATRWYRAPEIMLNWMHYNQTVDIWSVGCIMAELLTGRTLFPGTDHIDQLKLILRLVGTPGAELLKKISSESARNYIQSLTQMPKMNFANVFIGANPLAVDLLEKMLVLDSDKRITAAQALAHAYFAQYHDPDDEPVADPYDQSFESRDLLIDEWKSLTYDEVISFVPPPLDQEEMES
Chain of 266 human kinases (Homo sapiens, UniProt Q9BYP7) (Q9BYP7 whole entry): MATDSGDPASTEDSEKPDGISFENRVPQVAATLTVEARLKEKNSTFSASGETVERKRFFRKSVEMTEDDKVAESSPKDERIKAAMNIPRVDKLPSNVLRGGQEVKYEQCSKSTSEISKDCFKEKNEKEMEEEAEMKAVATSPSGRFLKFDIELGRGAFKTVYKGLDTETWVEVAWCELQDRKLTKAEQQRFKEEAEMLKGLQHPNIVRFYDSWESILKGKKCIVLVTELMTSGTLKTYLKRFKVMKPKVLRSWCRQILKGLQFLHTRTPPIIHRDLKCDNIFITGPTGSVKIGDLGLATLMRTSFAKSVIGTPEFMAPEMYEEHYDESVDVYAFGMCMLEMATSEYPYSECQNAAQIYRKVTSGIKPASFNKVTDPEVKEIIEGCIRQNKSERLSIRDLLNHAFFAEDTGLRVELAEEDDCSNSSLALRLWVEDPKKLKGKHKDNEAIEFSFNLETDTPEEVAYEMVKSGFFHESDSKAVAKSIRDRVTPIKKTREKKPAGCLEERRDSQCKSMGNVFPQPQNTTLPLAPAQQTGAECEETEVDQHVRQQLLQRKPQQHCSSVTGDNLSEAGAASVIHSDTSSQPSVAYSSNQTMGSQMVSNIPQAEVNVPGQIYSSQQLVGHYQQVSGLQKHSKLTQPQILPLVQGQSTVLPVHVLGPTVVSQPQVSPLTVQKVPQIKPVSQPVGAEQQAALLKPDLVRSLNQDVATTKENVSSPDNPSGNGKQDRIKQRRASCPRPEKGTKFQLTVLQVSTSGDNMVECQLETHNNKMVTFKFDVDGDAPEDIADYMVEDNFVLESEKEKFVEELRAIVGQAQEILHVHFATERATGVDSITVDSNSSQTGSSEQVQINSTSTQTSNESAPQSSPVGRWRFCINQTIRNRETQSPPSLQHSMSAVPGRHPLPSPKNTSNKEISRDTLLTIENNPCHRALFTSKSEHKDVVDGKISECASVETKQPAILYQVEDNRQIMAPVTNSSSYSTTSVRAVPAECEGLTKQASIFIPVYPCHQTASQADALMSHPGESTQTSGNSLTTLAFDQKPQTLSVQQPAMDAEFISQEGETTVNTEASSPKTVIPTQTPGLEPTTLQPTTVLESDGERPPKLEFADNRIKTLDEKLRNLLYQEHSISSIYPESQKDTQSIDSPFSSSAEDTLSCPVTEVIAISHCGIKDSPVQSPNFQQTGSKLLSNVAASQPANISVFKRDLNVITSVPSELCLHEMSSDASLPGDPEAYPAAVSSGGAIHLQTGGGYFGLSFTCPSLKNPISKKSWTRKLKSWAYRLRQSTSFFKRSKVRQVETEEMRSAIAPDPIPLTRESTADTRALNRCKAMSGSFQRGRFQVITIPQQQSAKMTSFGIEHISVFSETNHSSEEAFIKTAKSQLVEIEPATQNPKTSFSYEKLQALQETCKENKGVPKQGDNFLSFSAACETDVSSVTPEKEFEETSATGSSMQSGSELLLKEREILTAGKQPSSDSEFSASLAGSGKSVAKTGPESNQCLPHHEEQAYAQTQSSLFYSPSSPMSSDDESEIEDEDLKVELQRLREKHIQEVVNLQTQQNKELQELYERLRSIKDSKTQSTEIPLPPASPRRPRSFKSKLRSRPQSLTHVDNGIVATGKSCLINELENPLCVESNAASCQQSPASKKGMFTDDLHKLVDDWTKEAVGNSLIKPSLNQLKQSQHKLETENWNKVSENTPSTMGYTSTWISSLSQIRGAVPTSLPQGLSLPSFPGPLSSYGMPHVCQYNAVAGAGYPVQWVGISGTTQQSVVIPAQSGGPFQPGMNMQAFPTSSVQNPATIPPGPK
Chain of 266 human kinases (Homo sapiens, UniProt Q06187) (Q06187 whole entry): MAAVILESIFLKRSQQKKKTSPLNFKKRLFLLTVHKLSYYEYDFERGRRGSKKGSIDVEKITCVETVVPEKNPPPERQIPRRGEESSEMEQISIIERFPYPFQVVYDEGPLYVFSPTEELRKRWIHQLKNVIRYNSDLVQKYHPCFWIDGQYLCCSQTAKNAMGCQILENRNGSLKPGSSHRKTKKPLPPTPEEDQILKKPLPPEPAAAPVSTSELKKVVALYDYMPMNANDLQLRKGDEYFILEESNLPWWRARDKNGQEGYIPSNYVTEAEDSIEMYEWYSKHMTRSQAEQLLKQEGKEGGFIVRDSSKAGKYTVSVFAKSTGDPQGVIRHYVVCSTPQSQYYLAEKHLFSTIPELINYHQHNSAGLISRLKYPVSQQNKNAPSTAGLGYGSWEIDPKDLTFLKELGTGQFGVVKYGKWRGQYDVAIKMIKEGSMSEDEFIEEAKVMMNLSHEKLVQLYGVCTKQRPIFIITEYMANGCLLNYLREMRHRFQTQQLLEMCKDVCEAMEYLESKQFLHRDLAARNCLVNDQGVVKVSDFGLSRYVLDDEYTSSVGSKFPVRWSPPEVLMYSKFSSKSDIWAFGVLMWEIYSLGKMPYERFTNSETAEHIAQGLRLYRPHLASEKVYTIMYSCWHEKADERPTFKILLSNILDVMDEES
Chain of 266 human kinases (Homo sapiens, UniProt P22607) (P22607 23-806): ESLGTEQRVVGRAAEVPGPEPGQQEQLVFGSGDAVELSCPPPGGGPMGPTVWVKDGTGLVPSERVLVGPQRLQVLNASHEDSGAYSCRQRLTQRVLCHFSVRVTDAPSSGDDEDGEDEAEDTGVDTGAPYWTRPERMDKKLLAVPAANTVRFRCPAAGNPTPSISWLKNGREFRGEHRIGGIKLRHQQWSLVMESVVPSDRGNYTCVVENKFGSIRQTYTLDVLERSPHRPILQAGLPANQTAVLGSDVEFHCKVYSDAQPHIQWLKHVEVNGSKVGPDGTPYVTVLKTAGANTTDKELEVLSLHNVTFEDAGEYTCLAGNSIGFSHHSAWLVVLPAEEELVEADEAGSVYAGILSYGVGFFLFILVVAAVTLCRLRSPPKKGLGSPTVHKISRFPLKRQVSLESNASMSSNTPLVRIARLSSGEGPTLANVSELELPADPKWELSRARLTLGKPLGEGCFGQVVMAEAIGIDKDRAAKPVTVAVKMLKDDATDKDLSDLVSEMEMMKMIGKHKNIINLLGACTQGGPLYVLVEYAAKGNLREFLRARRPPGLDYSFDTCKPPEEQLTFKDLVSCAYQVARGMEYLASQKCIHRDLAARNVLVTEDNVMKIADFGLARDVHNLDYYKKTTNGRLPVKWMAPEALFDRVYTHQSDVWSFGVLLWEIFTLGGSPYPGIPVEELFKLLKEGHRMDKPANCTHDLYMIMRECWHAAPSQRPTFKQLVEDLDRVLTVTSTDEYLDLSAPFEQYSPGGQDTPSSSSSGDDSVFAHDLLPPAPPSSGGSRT
Chain of 266 human kinases (Homo sapiens, UniProt Q15759) (Q15759 whole entry): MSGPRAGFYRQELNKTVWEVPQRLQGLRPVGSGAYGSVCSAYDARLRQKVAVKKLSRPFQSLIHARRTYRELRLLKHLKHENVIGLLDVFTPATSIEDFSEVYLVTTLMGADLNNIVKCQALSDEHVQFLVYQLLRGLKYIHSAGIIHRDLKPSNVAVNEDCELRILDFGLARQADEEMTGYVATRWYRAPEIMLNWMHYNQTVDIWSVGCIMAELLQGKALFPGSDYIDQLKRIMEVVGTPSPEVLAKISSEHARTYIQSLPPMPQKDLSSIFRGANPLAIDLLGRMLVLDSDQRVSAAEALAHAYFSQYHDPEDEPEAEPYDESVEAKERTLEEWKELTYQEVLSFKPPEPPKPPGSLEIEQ

Sequence	% activity [1]	% activity [2]	% activity [3]	% activity [4]	% activity [5]	% activity [6]	% activity [7]	% activity [8]	% activity [9]	% activity [10]	% activity [11]	% activity [12]	% activity [13]
HRRIKAWLKKIKALARQLGVAA (mammal) [MMI-0500]	79%	42%	7%	80%	9%	10%	2%	127%	23%	32%	38%	18%	20%
YARAAARQARAKALNRQLGVA (mammal) [MMI-0200]	128%	95%	74%	85%	97%	208%	85%	142%	100%	100%	131%	100%	100%
